{"source": "patent US9839671B2", "about": "“Peptide and uses therefor” (University of Birmingham, priority 2012, dated 2017)", "molecules": {"B1": {"name": "adiponectin (protein)", "chain": "ETTTQGPGVLLPLPKGACTGWMAGIPGHPGHNGAPGRDGRDGTPGEKGEKGDPGLIGPKGDIGETGVPGAEGPRGFPGIQGRKGEPGEGAYVYRSAFSVGLETYVTIPNMPIRFTKIFYNQQNHYDGSTGKFHCNIPGLYYFAYHITVYMKDVKVSLFKKDKAMLFTYDQYQENNVDQASGSVLLHLEVGDQVWLQVYGEGERNGLYADNDNDSTFTGFLLYHDTN", "notes": "adipocyte-derived cytokine, used as positive control"}}, "key": {"[1]": {"test_system": "PBL or B cell depleted PBL transmigration across IFN-γ/TNF-α treated HUVEC", "test": "S1P signalling in PBL transmigration across HUVEC", "assay_type": "cell-based, human", "protocol": "Refer to FIG. 19. […]. Levels of SPHK1 and SPHK2 mRNA expression determined by real-time PCR of RNA from B cells and HUVEC (part D, n=2). PBL transmigration was measured across IFN-γ/TNF-α treated HUVEC pre-treated with SPHK1 specific inhibitor (5 μM) in presence of […] (10 ng/ml) (part E)."}, "[2]": {"test_system": "transmigration of peripheral blood lymphocytes (PBL) across TNF-α/IFN-γ stimulated endothelial cells", "test": "PBL transendothelial migration, static adhesion (transwell) assay", "assay_type": "cell-based, human", "settings": "for PBL transmigration: static assay, adiponectin 0.0001-15 μg/ml, peptide 0.001-10 ng/ml, control peptides 10 ng/ml"}, "[3]": {"test_system": "transmigration of B cell depleted PBL / T cells / NK cells across TNF-α/IFN-γ stimulated endothelial cells", "test": "B cell dependence of adiponectin inhibition (B cell depletion, B cell supernatants, Brefeldin A, NK cells)", "assay_type": "cell-based, human", "settings": "for effect of B cell supernatants prepared in the presence of Brefeldin A: inhibitor of B cell secretion; for adiponectin inhibition of migration after removal of B cells from PBL: adiponectin 15 μg/ml, B cell depleted PBL", "protocol": "B cells were isolated and incubated in presence or absence of adiponectin at 15 μg/ml. […] For some experiments, B cells were treated with Brefeldin A, an inhibitor of B cell secretion. […] This is shown in FIG. 8, where the data is shown as mean±SEM and is representative of three independent experiments analysed using one-way ANOVA and Bonferroni's multiple comparison post test. ***p<0.001, ns=non-significant.\nRefer to FIG. 14. Endothelial cells were cultured in low serum medium and stimulated with TNF-α/IFN-γ for 24 hours in the absence of adiponectin. PBL transmigration was measured after removal of B cells using bead positive selection and after reconstitution with B cells that were isolated using bead negative selection in presence or absence of adiponectin (15 μg/ml). Supernatants from adiponectin-treated B cells or B cell treated with Brefeldin A to block protein secretion were added to PBL."}, "[4]": {"test_system": "lymphocyte integrin LFA-1 (CD11a/CD18; αLβ2)", "test": "LFA-1 affinity sites on memory T cells immobilised on ICAM, activated with IP-10", "assay_type": "cell-based", "settings": "IP-10 10 ng/ml, S1P 10 μM, 30 minutes", "protocol": "Refer to FIG. 20. 96 well plates were coated with 50 μg/ml of recombinant ICAM overnight at 4° C. The plate was blocked using PBS 4% BSA for an hour at room temperature and PBL treated with IP-10 (10 ng/ml) and/or S1P (10 μM) were added for 30 minutes. Excess of unbound PBL was washed and PBL were labelled for the intermediate affinity site of the lymphocyte integrin LFA-1 (CD11a/CD18; αLβ2) using the KIM127 antibody (10 ug/ml) and for the high affinity site using antibody 24 (10 ug/ml) at 4° C. The expression of both affinity site was measured on memory T cells using mean fluorescence intensity (MFI). […] Data is a pool of two independent experiments."}, "[5]": {"test_system": "PBL migration across TNF-α/IFN-γ stimulated endothelial cells under flow", "test": "PBL migration, flow based adhesion assay", "assay_type": "cell-based, human", "settings": "adiponectin 15 μg/ml", "protocol": "We have been interested in the ability of the adipocyte derived cytokine, adiponectin, to regulate the recruitment of human T cells to inflamed endothelium. […] In our in vitro studies we used static transwell assays, as well as flow based adhesion assays, to track the migration of T cells (which were in crude isolates of peripheral blood lymphocytes [PBL]) across TNF-α and IFN-γ stimulated endothelial cells.\nEndothelial cells were cultured in low serum medium and stimulated with TNF-α/IFN-γ for 24 hours in the absence of adiponectin. PBL were isolated and treated with adiponectin at 0.0001 to 15 μg/ml for one hour.\nRefer to FIG. 13. Endothelial cells were cultured in low serum medium and stimulated with TNF-α/IFN-γ for 24 hours in the absence of adiponectin. PBL were isolated and treated with adiponectin at 0.0001 to 15 μg/ml for one hour. […] In part (D), compound C, an AMP-kinase inhibitor, was added to PBL at 10 μg/ml for 30 minutes prior to addition of adiponectin at 15 μg/ml for 1 hour. AMPK is a signalling adapter that is required for adiponectin-receptor signalling. […] Data is a pool of at least three independent experiments and were analysed using t-test, one-way ANOVA and Dunnett's multiple comparisons post-test. **[…], ***[…]."}, "[6]": {"test_system": "PBL from T1D patients across TNF-α/IFN-γ stimulated endothelial cells", "test": "Transmigration of PBL from type 1 diabetes patients", "settings": "adiponectin 15 μg/ml one hour or exogenous PEPITEM", "procedure": "Endothelial cells were cultured in low serum medium and stimulated with TNF-α/IFN-γ for 24 hours in absence of adiponectin. […] Data was analysed using t-test and one-way ANOVA and Bonferonni's multiple comparisons post-test. ***p≦1.0001.\nEndothelial cells were cultured in low serum medium and stimulated with TNF-α/IFN-γ for 24 hours in the absence of adiponectin. […] Data was analysed using t-test **p<0.01."}}, "note": "“Also recorded” adds a separate entry of the source.", "data": [{"molecule": "CCCCCCc1cccc(NC(=O)[C@H](N)CCP(=O)(O)O)c1", "note": "[W146]", "values": [{"measurement": "effect on PEPITEM inhibition of lymphocyte transmigration", "setting": "[1]; W146 10 μM with PEPITEM (FIG. 19B)", "value": "releases lymphocytes from the inhibitory effects of PEPITEM"}, {"measurement": "effect on adiponectin inhibition of lymphocyte transmigration", "setting": "[1]; W146 10 μM, adiponectin 15 μg/ml (FIG. 19A)", "value": "releases lymphocytes from the inhibitory effects of Adiponectin"}]}, {"molecule": "c1cc(-c2cnn3cc(-c4ccc(OCCN5CCCCC5)cc4)cnc23)ccn1", "note": "[compound C, reference compound]", "values": [{"measurement": "effect on adiponectin-induced decrease of PBL transmigration", "setting": "[2]; compound C 10 μg/ml on PBL 30 minutes before adiponectin 15 μg/ml 1 hour", "value": "restored to normal, control levels; also recorded: restored to normal control levels; also recorded: ablated"}, {"measurement": "PBL migration in the absence of adiponectin", "setting": "[2]; compound C alone", "value": "did not have any effects"}]}, {"molecule": "C[C@H]1CCC/C=C/[C@@H]2C[C@H](O)C[C@H]2[C@H](O)/C=C/C(=O)O1", "note": "[Brefeldin A, reference compound]", "values": [{"measurement": "effect of B cell supernatants prepared in the presence of Brefeldin A", "setting": "[3]", "value": "not able to regulate the migration of T cells"}, {"measurement": "effect of B cell supernatants prepared in the presence of Brefeldin A", "setting": "[3]; listed as Brefeldin-A", "value": "this effect was lost"}, {"measurement": "effect of B cell supernatants prepared in the presence of Brefeldin A", "setting": "[3]; listed as Brefeldine A", "value": "lost"}]}, {"molecule": "CCCCCCCCCCCCC/C=C/[C@@H](O)[C@@H](N)COP(=O)(O)O", "note": "[S1P, sphingosine-1-phosphate]", "values": [{"measurement": "expression of intermediate (KIM127) and high affinity (antibody 24) sites of LFA-1 on memory T cells (MFI)", "setting": "[4]", "value": "down-regulated"}, {"measurement": "transmigration of B cell depleted PBL pre-treated with S1P", "setting": "[1]; exogenous S1P 0-100 μM (FIG. 19C)", "value": "restores the inhibition of transmigration; also recorded: dose dependently inhibits T cell migration"}]}, {"molecule": "B1", "values": [{"measurement": "PBL migration in flow based adhesion assay", "setting": "[5]", "value": "equally effective"}, {"measurement": "EC50, inhibition of PBL transmigration", "setting": "[2]; adiponectin, static adhesion assay, PBL treated one hour, linear regression (FIG. 1B)", "value": 0.94, "unit": "µg/mL"}, {"measurement": "EC50", "setting": "[2]; adiponectin, static adhesion assay, linear regression (FIG. 13A), read-out: EC50, inhibition of PBL transmigration", "value": "~40", "unit": "nM"}, {"measurement": "inhibition of PBL transmigration on DMEC", "setting": "[2]; dermal microvascular endothelium (FIG. 13C)", "value": "effective"}, {"measurement": "inhibition of PBL transmigration on HUVEC", "setting": "[2]; endothelial cells from umbilical cord (FIG. 13C)", "value": "effective"}, {"measurement": "inhibition of PBL transmigration on HSEC", "setting": "[2]; liver sinusoidal endothelial cells (FIG. 13C)", "value": "effective"}, {"measurement": "inhibition of PBL transmigration on HSAVEC", "setting": "[2]; saphenous vein endothelial cells (FIG. 13C)", "value": "not"}, {"measurement": "PBL transmigration", "setting": "[2]", "value": "significantly and dose dependently reduced; also recorded: dose dependently blocked"}, {"measurement": "PBL transmigration", "setting": "[2]; listed as Adiponectin", "value": "induced a decrease of transmigration"}, {"measurement": "PBL transmigration", "setting": "[2]; listed as Aq", "value": "significantly reduced lymphocyte migration"}, {"measurement": "adiponectin inhibition of migration after removal of B cells from PBL", "setting": "[3]", "value": "lost"}, {"measurement": "adiponectin inhibition of migration after removal of B cells from PBL", "setting": "[3]; listed as Adiponectin", "value": "completely inhibited this response"}, {"measurement": "adiponectin inhibition of migration after removal of B cells from PBL", "setting": "[3]; listed as Aq", "value": "completely inhibited this response"}, {"measurement": "migration of natural killer cells", "setting": "[3]; with adiponectin (FIG. 7B)", "value": "not affected"}, {"measurement": "inhibition of transmigration of PBL from T1D patients", "setting": "[6]", "value": "refractory; also recorded: significantly compromised"}, {"measurement": "inhibition of transmigration of PBL from T1D patients", "setting": "[6]; listed as Adiponectin", "value": "lost"}]}]}
